Measured values taken from US20140087995A1 (published 2014).
Numbered stars: 1 amine (or outer) side, 2 acyl side, 3 side chain; on linkers, the order of the positions; unused ones are H or OH. Bridge positions count the residues as written; N and C are the ends. Square brackets hold non-standard residues; d marks the D form. Side chains are listed from the residue outwards. Ends that are not written are not given here. * marks the point of attachment. C20 diacid = O=C(O)CCCCCCCCCCCCCCCCCCC(=O)*; γGlu = O=C(O)[C@H](CCC(=O)[*:2])N[*:1]; AEEA = NCCOCCOCC(=O)O

B1: N^ε-[2-[2-[2-[[(4S)-4-carboxy-4-(19-carboxynonadecanoylamino)butanoyl]amino]ethoxy]ethoxy]acetyl]Lys[Arg1,Arg17,Pro21,Pro27,His35]-h-amylin (peptide)
peptide: K([AEEA-γGlu-C20 diacid])RCNTATCATQRLANFLRHSSPNFGAIPSSTNVGSHTY-NH2
modifications: disulfide 3-8; N-terminus assumed
SMILES: CC[C@H](C)[C@H](NC(=O)[C@H](C)NC(=O)CNC(=O)[C@H](Cc1ccccc1)NC(=O)[C@H](CC(N)=O)NC(=O)[C@@H]1CCCN1C(=O)[C@H](CO)NC(=O)[C@H](CO)NC(=O)[C@H](Cc1c[nH]cn1)NC(=O)[C@H](CCCNC(=N)N)NC(=O)[C@H](CC(C)C)NC(=O)[C@H](Cc1ccccc1)NC(=O)[C@H](CC(N)=O)NC(=O)[C@H](C)NC(=O)[C@H](CC(C)C)NC(=O)[C@H](CCCNC(=N)N)NC(=O)[C@H](CCC(N)=O)NC(=O)[C@@H](NC(=O)[C@H](C)NC(=O)[C@@H]1CSSC[C@H](NC(=O)[C@H](CCCNC(=N)N)NC(=O)[C@@H](N)CCCCNC(=O)COCCOCCNC(=O)CC[C@H](NC(=O)CCCCCCCCCCCCCCCCCCC(=O)O)C(=O)O)C(=O)N[C@@H](CC(N)=O)C(=O)N[C@@H]([C@@H](C)O)C(=O)N[C@@H](C)C(=O)N[C@@H]([C@@H](C)O)C(=O)N1)[C@@H](C)O)C(=O)N1CCC[C@H]1C(=O)N[C@@H](CO)C(=O)N[C@@H](CO)C(=O)N[C@H](C(=O)N[C@@H](CC(N)=O)C(=O)N[C@H](C(=O)NCC(=O)N[C@@H](CO)C(=O)N[C@@H](Cc1c[nH]cn1)C(=O)N[C@H](C(=O)N[C@@H](Cc1ccc(O)cc1)C(N)=O)[C@@H](C)O)C(C)C)[C@@H](C)O
notes: modifications are with respect to human amylin; also called compound 45
B2: N^ε1-[(4S)-4-carboxy-4-[[(4S)-4-carboxy-4-(19-carboxynonadecanoylamino)butanoyl]amino]butanoyl]-[D-Asp14,Arg17,Pro21,Pro27,Arg35]-h-amylin (peptide)
peptide: K([γGlu-γGlu-C20 diacid])CNTATCATQRLA[dD]FLRHSSPNFGAIPSSTNVGSRTY-NH2
modifications: disulfide 2-7; N-terminus assumed
SMILES: CC[C@H](C)[C@H](NC(=O)[C@H](C)NC(=O)CNC(=O)[C@H](Cc1ccccc1)NC(=O)[C@H](CC(N)=O)NC(=O)[C@@H]1CCCN1C(=O)[C@H](CO)NC(=O)[C@H](CO)NC(=O)[C@H](Cc1c[nH]cn1)NC(=O)[C@H](CCCNC(=N)N)NC(=O)[C@H](CC(C)C)NC(=O)[C@H](Cc1ccccc1)NC(=O)[C@@H](CC(=O)O)NC(=O)[C@H](C)NC(=O)[C@H](CC(C)C)NC(=O)[C@H](CCCNC(=N)N)NC(=O)[C@H](CCC(N)=O)NC(=O)[C@@H](NC(=O)[C@H](C)NC(=O)[C@@H]1CSSC[C@H](NC(=O)[C@@H](N)CCCCNC(=O)CC[C@H](NC(=O)CC[C@H](NC(=O)CCCCCCCCCCCCCCCCCCC(=O)O)C(=O)O)C(=O)O)C(=O)N[C@@H](CC(N)=O)C(=O)N[C@@H]([C@@H](C)O)C(=O)N[C@@H](C)C(=O)N[C@@H]([C@@H](C)O)C(=O)N1)[C@@H](C)O)C(=O)N1CCC[C@H]1C(=O)N[C@@H](CO)C(=O)N[C@@H](CO)C(=O)N[C@H](C(=O)N[C@@H](CC(N)=O)C(=O)N[C@H](C(=O)NCC(=O)N[C@@H](CO)C(=O)N[C@@H](CCCNC(=N)N)C(=O)N[C@H](C(=O)N[C@@H](Cc1ccc(O)cc1)C(N)=O)[C@@H](C)O)C(C)C)[C@@H](C)O

Tests used:
rat calcitonin receptor [1] = molecular target: T1, rat calcitonin receptor (rat, UniProt P32214 25-516); experiment: SPA competition vs 125I-calcitonin, membranes with rat CTR (Assay VIII)
T1 construct: whole, on cells; Membranes of BHK tk'ts 13 cells transiently transfected with the rat calcitonin receptor; also called rCTR; rat calcitonin (a) receptor
T1 sequence (looked up): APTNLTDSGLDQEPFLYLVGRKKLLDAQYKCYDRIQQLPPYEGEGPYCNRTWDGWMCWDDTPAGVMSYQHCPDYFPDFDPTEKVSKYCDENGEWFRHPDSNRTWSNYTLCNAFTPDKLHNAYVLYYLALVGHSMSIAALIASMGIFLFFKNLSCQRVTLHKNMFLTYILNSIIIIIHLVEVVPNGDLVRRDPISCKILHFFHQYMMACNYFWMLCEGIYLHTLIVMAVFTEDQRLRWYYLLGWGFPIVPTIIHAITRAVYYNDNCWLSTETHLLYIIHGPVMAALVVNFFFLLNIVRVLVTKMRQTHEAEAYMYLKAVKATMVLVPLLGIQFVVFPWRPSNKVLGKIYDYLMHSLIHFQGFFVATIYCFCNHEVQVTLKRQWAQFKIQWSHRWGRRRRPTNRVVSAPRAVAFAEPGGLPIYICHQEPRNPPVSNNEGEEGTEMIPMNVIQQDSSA

[2] = molecular target: T2, rat amylin receptor (rat calcitonin receptor + rat RAMP 3) (rat, UniProt P32214 25-516; Q9JJ73 23-147); experiment: SPA competition vs 125I-rat amylin, membranes with rat CTR + rat RAMP3 (Assay VI)
T2 construct: whole, on cells; Membranes of BHK tk'ts 13 cells transiently transfected with the rat calcitonin receptor and rat RAMP 3; also called rAmylin-R; rat amylin 3(a) receptor
T2 sequence (looked up) 1: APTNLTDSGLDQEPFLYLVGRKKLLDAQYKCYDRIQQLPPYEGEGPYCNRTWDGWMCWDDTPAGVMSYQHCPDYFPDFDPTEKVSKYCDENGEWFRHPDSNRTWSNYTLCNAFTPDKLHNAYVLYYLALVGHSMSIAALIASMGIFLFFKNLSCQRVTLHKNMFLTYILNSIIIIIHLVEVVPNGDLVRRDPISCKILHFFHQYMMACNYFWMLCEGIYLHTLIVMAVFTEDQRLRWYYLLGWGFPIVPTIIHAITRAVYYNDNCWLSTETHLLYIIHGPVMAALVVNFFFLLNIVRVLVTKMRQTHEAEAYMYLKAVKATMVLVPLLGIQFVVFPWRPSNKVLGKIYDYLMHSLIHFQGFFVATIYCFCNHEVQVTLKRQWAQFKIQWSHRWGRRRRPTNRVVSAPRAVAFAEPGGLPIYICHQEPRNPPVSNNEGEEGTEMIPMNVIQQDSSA
T2 sequence (looked up) 2: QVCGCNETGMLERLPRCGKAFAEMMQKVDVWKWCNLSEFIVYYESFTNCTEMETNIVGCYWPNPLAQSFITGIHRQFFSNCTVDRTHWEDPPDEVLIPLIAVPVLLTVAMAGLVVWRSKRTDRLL

rat calcitonin receptor [3] = molecular target: T1, rat calcitonin receptor; experiment: IC50 at rCTR divided by IC50 at rAmylin-R (reference)
[4] = molecular target: T3, human calcitonin receptor (human, UniProt P30988 25-474); experiment: IC50 at hCTR divided by IC50 at hAmylin-R (reference)
T3 construct: whole, on cells; Membranes of a BHK tk'ts 13 cell line stably transfected with the human calcitonin receptor; also called hCTR; hCT
T3 sequence (looked up): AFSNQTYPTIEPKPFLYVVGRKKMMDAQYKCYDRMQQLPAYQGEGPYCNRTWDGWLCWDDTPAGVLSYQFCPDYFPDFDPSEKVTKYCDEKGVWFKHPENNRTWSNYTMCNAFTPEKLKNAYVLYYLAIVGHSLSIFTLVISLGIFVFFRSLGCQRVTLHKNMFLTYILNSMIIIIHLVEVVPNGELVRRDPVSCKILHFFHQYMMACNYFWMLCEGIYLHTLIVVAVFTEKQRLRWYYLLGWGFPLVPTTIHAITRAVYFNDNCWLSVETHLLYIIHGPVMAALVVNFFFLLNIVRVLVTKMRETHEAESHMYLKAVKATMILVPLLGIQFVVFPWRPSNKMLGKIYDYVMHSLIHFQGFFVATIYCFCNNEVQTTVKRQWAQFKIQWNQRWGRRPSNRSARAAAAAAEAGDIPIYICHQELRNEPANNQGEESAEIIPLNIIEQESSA
In short: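 Scintillation proximity competition binding on cell membranes at 35 ng/μL with SPA beads, in 50 mM Hepes pH 7.4, 1 mM CaCl2, 5 mM MgCl₂, 0.1% OA, 0.02% Tween20. Incubated 120 min at 25° C with shaking. IC₅₀ from one-site competition fit.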

rat calcitonin receptor [5] = molecular target: T4, rat calcitonin receptor (rat, UniProt P32214 25-516); experiment: SPA competition vs 125I-calcitonin, membranes (Assay VIII)
T4 construct: whole, on cells; Membranes prepared from transiently transfected BHK tk'ts 13 cells; also called rCTR; rat calcitonin (a) receptor
T4 sequence (looked up): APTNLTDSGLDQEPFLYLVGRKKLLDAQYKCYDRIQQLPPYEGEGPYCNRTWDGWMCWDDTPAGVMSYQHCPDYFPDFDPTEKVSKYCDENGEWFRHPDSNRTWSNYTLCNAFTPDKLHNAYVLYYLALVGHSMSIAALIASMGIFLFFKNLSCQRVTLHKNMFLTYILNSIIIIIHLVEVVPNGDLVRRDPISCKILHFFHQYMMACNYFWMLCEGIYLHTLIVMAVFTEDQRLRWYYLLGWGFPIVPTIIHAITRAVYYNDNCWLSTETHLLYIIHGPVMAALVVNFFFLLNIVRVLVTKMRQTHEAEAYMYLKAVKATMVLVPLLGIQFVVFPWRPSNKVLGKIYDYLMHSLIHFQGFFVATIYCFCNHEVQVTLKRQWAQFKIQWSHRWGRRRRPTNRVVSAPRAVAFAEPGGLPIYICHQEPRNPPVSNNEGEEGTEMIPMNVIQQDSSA

[6] = molecular target: T5, rat amylin receptor (rat calcitonin receptor + rat RAMP 3) (rat, UniProt P32214 25-516; Q9JJ73 23-147); experiment: SPA competition vs 125I-rat amylin, membranes (Assay VI)
T5 construct: whole, on cells; Membranes prepared from transiently transfected BHK tk'ts 13 cells; also called rAmylin-R; rat amylin 3(a) receptor
T5 sequence (looked up) 1: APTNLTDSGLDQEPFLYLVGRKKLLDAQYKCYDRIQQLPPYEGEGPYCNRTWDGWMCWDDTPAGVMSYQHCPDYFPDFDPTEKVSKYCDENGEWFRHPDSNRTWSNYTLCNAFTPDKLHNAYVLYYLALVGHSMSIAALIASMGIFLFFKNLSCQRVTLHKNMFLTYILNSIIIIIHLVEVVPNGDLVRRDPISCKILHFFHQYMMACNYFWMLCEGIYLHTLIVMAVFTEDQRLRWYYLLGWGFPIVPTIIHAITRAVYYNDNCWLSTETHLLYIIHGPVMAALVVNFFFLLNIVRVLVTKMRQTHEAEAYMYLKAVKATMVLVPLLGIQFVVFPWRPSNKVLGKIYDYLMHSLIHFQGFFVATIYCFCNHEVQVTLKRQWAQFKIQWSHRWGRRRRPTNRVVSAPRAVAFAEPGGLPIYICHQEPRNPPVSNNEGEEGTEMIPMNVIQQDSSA
T5 sequence (looked up) 2: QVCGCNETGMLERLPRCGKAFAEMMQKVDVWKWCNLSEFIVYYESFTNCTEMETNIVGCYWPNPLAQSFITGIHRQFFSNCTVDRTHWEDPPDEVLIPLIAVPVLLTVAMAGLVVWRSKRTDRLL

Binder | IC50 (rat calcitonin receptor [1]) [nM] | IC50 [2] [nM] | Ratio rCT/rAmylin binding (rat calcitonin receptor [3]) | Ratio hCT/hAmylin binding [4] | IC50 (rat calcitonin receptor [5]) [nM] | IC50 [6] [nM]
B1 | 41.8 | 0.623 | 67.1 | 26.8 | – | –
B2 | – | – | – | – | 536 | 1.69
KCNTATCATQRLADFLRHSSPNFGAIPSSTNVGSRTY-NH2 (disulfide 2-7, Not acylated) [[Asp14,Arg17,Pro21,Pro27,Arg35]-h-amylin] | – | – | – | – | 30.9 | –
